Laboratory results from PMC4704858 (Science (New York, N.Y.), 2015).

Target: the molecule itself
Assay: crystal structure

B1: MvINS, an Insig homolog from Mycobacterium vanbaalenii PYR-1 (wild type) (natural protein)
chain: MRLRISEAVVLFLLGAVAALIGDHSHVVTGTTVYHTDAVPFVWSSPFWFPILVGAATASLAELRLHLPAPRDGVTARQALGGVAAVVGTYVTTALVHAFPVVPVTALVCAAAAITWCVLGDGPGAACGVVIAVIGPAVEIALVQLGVFAYHPDSDGLFGVAPFLAPLYFAFGVVAALLGELAVARRPQLGPPVCDTVSRGPGAG
  stoichiometry N: 3
